Data reported in US20260327306 (published 2026).

Biological target: T1, Human NKp30 (BKM0179) (human, UniProt O14931)
T1 chain: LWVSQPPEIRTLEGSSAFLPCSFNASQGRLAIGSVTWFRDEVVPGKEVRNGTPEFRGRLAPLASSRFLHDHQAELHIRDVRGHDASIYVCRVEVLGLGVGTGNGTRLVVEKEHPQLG

B1: BKM0138 (BJM0411 VL-N95A) (antibody, V domains shown)
VH: EIQLLESGGGLVQPGGSLRLSCAVSGFSITTTGYHWNWVRQAPGKGLEWVGYIYSSGSTSYNPSLKSRFTISRDTSKNTFYLQMNSLRAEDTAVYYCARGDWHYFDYWGQGTMVTVSS
VL: DSVTTQSPLSLPVTLGQPASISCSGEKLSDKYVHWYQQRPGQSPRMLIYENDRRPSGVPDRFSGSNSGNDATLKVEAEDVGVYFCQFWDSTASAVFGGGTKVEIKI
A Kd of 3.2 nM was found for B1 in this work.
